Assay results published in paper PMC12416549 (2024).
Substitutions are numbered along the chain they refer to. Names may count otherwise.

T1: TNFR1 (Homo sapiens, UniProt P19438)
T1 chain: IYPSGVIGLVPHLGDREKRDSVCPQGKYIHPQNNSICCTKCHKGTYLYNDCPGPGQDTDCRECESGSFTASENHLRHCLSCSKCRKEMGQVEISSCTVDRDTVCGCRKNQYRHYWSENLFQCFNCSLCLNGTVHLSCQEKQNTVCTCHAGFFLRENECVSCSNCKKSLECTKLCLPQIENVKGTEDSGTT

B1: E58I (designed binder)
chain: MTLQELLREEALRRAEAEAFRYALELLAEKFPEQKEYLLDLAEEIESQIRSLSGVDVIDVRKFLDKEWAWVKELLAEHPAELAEVEAARAARLAELRAEVEAKVAA
B2: S53Q (designed binder)
chain: B1 chain with S53Q, I58E
B3: Y22C (designed binder)
chain: B1 chain with Y22C, I58E
B4: R14H (designed binder)
chain: B1 chain with R14H, I58E
B5: E44I (designed binder)
chain: B1 chain with E44I, I58E
B6: E101P (designed binder)
chain: B1 chain with I58E, E101P
B7: R92V (designed binder)
chain: B1 chain with I58E, R92V
B8: A91G (designed binder)
chain: B1 chain with I58E, A91G
B9: D59I (designed binder)
chain: B1 chain with I58E, D59I
B10: F31M (designed binder)
chain: B1 chain with F31M, I58E
B11: L64Q (designed binder)
chain: B1 chain with I58E, L64Q
B12: E9I (designed binder)
chain: B1 chain with E9I, I58E
B13: L7P (designed binder)
chain: B1 chain with L7P, I58E
B14: E58N (designed binder)
chain: B1 chain with I58N
B15: T2P (designed binder)
chain: B1 chain with T2P, I58E
B16: A88F (designed binder)
chain: B1 chain with I58E, A88F
B17: A11D (designed binder)
chain: B1 chain with A11D, I58E
B18: E25Q (designed binder)
chain: B1 chain with E25Q, I58E
B19: E44M (designed binder)
chain: B1 chain with E44M, I58E
B20: V55A (designed binder)
chain: B1 chain with V55A, I58E
B21: L93C (designed binder)
chain: B1 chain with I58E, L93C
B22: A76E (designed binder)
chain: B1 chain with I58E, A76E
B23: E86N (designed binder)
chain: B1 chain with I58E, E86N
B24: A19T (designed binder)
chain: B1 chain with A19T, I58E
B25: E16T (designed binder)
chain: B1 chain with E16T, I58E
B26: A94R (designed binder)
chain: B1 chain with I58E, A94R
B27: L12H (designed binder)
chain: B1 chain with L12H, I58E
B28: E18T (designed binder)
chain: B1 chain with E18T, I58E
B29: F31P (designed binder)
chain: B1 chain with F31P, I58E
B30: R13G (designed binder)
chain: B1 chain with R13G, I58E
B31: E29K (designed binder)
chain: B1 chain with E29K, I58E
B32: E84L (designed binder)
chain: B1 chain with I58E, E84L
B33: Y22N (designed binder)
chain: B1 chain with Y22N, I58E
B34: A106T (designed binder)
chain: B1 chain with I58E, A106T
B35: K66F (designed binder)
chain: B1 chain with I58E, K66F
B36: E86I (designed binder)
chain: B1 chain with I58E, E86I
B37: S51Q (designed binder)
chain: B1 chain with S51Q, I58E
B38: Y22K (designed binder)
chain: B1 chain with Y22K, I58E
B39: V100E (designed binder)
chain: B1 chain with I58E, V100E
B40: L82N (designed binder)
chain: B1 chain with I58E, L82N
B41: A19V (designed binder)
chain: B1 chain with A19V, I58E
B42: K66N (designed binder)
chain: B1 chain with I58E, K66N
B43: A90E (designed binder)
chain: B1 chain with I58E, A90E
B44: L52V (designed binder)
chain: B1 chain with L52V, I58E
B45: I49D (designed binder)
chain: B1 chain with I49D, I58E
B46: G54M (designed binder)
chain: B1 chain with G54M, I58E
B47: Q34F (designed binder)
chain: B1 chain with Q34F, I58E
B48: A76C (designed binder)
chain: B1 chain with I58E, A76C
B49: L6T (designed binder)
chain: B1 chain with L6T, I58E
B50: E46Q (designed binder)
chain: B1 chain with E46Q, I58E
B51: T2W (designed binder)
chain: B1 chain with T2W, I58E
B52: I49L (designed binder)
chain: B1 chain with I49L, I58E
B53: D56F (designed binder)
chain: B1 chain with D56F, I58E
B54: E46N (designed binder)
chain: B1 chain with E46N, I58E
B55: A28D (designed binder)
chain: B1 chain with A28D, I58E
B56: F63C (designed binder)
chain: B1 chain with I58E, F63C
B57: A69R (designed binder)
chain: B1 chain with I58E, A69R
B58: E10T (designed binder)
chain: B1 chain with E10T, I58E
B59: R89Y (designed binder)
chain: B1 chain with I58E, R89Y

Target: T1, TNFR1
Test: yeast display SC50

Binder	apparent Kd (screen) [nM]
B1	0.593
B2	0.653
B3	0.446
B4	0.49
B5	0.869
B6	0.446
B7	0.593
B8	0.49
B9	0.653
B10	0.539
B11	0.79
B12	0.79
B13	0.79
B14	0.49
B15	0.718
B16	0.718
B17	0.593
B18	0.539
B19	1.69
B20	1.16

Binder	apparent Kd (screen) [nM]
B21	0.653
B22	0.593
B23	1.05
B24	0.718
B25	0.539
B26	0.869
B27	0.956
B28	0.593
B29	7.78
B30	0.252
B31	0.49
B32	0.49
B33	0.593
B34	1.05
B35	0.653
B36	0.718
B37	1.27
B38	0.49
B39	0.539
B40	1.69

Binder	apparent Kd (screen) [nM]
B41	0.446
B42	0.653
B43	0.49
B44	0.49
B45	12.5
B46	12.5
B47	0.79
B48	0.539
B49	10.4
B50	0.49
B51	1.16
B52	0.539
B53	2.73
B54	0.593
B55	18.3
B56	6.43
B57	0.539
B58	5.31
B59	0.539
